Where a chain is given by its changes, count along the chain named. In names and notes the source's numbering stands.
B1: unlabeled wild type mouse GAC (glutaminase C, residues 72-603) (enzyme)
chain: LSSSPSEILQELGKGGTPPQQQQQQQQQPGASPPAAPGPKDSPGETDAFGNSEGKEMVAAGDNKIKQGLLPSLEDLLFYTIAEGQEKIPVHKFITALKSTGLRTSDPRLKECMDMLRLTLQTTSDGVMLDKDLFKKCVQSNIVLLTQAFRRKFVIPDFMSFTSHIDELYESAKKQSGGKVADYIPQLAKFSPDLWGVSVCTVDGQRHSIGDTKVPFCLQSCVKPLKYAIAVNDLGTEYVHRYVGKEPSGLRFNKLFLNEDDKPHNPMVNAGAIVVTSLIKQGVNNAEKFDYVMQFLNKMAGNEYVGFSNATFQSERESGDRNFAIGYYLKEKKCFPEGTDMVGILDFYFQLCSIEVTCESASVMAATLANGGFCPITGERVLSPEAVRNTLSLMHSCGMYDFSGQFAFHVGLPAKSGVAGGILLVVPNVMGMMCWSPPLDKMGNSVKGIHFCHDLVSLCNFHNYDNLRHFAKKLDPRREGGDQRHSFGPLDYESLQQELALKDTVWKKVSPESSDDTSTTVVYRMESLGERS
notes: Recombinant; His-tag cleaved with thrombin; The oligomeric state depends on concentration and phosphate; also called WT-GAC; WT GAC
B2: Δ72 K316E-GAC (enzyme)
glutaminase C subunit: B1 chain with K245E
notes: Unlabeled single mutant of the mouse GAC construct
B3: unlabeled mouse GAC D391K (constitutive dimer mutant) (enzyme)
chain: B1 chain with D320K
notes: also called D391K-GAC

Experiments:
[1] = molecular target: the molecule itself; assay: SEC-MALS, self-association
From the text: FIGS. 4A-F define the oligomeric species of GAC mutants. In particular, multi-angle light scattering profiles of WT-GAC (FIG. 4A), D391K-GAC (FIG. 4B), K316E-D391K-R459E-GAC (FIG. 4C), and K316E-GAC (FIG. 4D) were obtained following SEC and subsequent MALS analysis, where elution of each species was monitored using refractive index (left axis). Upon elution, light scattering data was collected and then used to calculate the molecular weight and polydispersity for the species eluted (right axis). Reference lines for the molecular weights of the monomer, dimer, and tetramer forms of GAC are included at 58 kD, 116 kD, and 230 kD respectively. […]
Purified GAC and GAC mutants were subjected to analytical size exclusion chromatography on a Superdex 200 10/300 GL column (GE Healthcare) equilibrated with 20 mM Tris-HCl pH 8.5, 200 mM NaCl for experiments in the absence of inorganic phosphate and 20 mM Tris-HCl pH 8.5, 200 mM NaCl, 50 mM K₂HPO₄ for experiments in the presence of inorganic phosphate at a temperature of 4° C. and flow rate of 0.4 ml/min. […] RMS radius and mass distribution (polydispersity) was analyzed using the ASTRA software using monomeric BSA (Sigma) to normalize the light scattering signal.

[2] = molecular target: the molecule itself; assay: analytical gel filtration (Superdex 200 10/300 GL), self-association
Protocol: FIGS. 3A-C illustrate that WT GAC accesses monomer, dimer, and larger oligomeric species in a concentration and phosphate dependent manner.
Purified GAC and GAC mutants were subjected to analytical size exclusion chromatography on a Superdex 200 10/300 GL column (GE Healthcare) equilibrated with 20 mM Tris-HCl pH 8.5, 200 mM NaCl for experiments in the absence of inorganic phosphate and 20 mM Tris-HCl pH 8.5, 200 mM NaCl, 50 mM K₂HPO₄ for experiments in the presence of inorganic phosphate at a temperature of 4° C. and flow rate of 0.4 ml/min. Protein concentrations were prepared to be either 5 mg/mL or 0.5 mg/mL and centrifuged at 10,000×g for 10 minutes prior to injecting 200 μL of each sample. The same protocol was followed for MALS analysis. Briefly, 50 μL samples of 0.5, 5, or 10 mg/mL GAC was injected onto a WTC-030S5 size exclusion column (Wyatt technology) coupled to a static 18-angle light scattering detector (DAWN HELEOS-II) and a refractive index detector (OptiLab T-rEX, Wyatt Technology) kept at 23° C. The flow rate was kept at 1 mL/min. RMS radius and mass distribution (polydispersity) was analyzed using the ASTRA software using monomeric BSA (Sigma) to normalize the light scattering signal.

| Protein | concentration dependent activation of WT-GAC (glutaminase activity, two-step assay, no phosphate) | glutaminase specific activity (µM Glu/µM GAC min) of 50 nM WT-GAC, two-step assay, 20 mM glutamine, phosphate varied | glutaminase specific activity (µM Glu/µM GAC min), two-step assay, 20 mM glutamine, no phosphate | binding result [1] | binding result [2] | concentration dependent activation (glutaminase activity, 20 mM glutamine, no phosphate) |
| --- | --- | --- | --- | --- | --- | --- |
| B1 | The quenching was shown to be concentration dependent with the resultant FRET titration curve strongly correlating with the concentration dependent activation of WT-GAC | specific activity (filled circles) rises from about 500 near 3 mM phosphate to about 5000 at 20 mM and 8000 at 45 mM; it is flat at about 8700 from 67 to 150 mM | specific activity (filled circles) rises from about 100 at 50 nM GAC to about 290 at 230 nM, 410 at 510 nM and about 460-470 at 770 and 1150 nM, lying on the FRET points | binds | – | – |
| B2 | – | – | – | binds | – | – |
| B3 | – | – | – | – | binds | no concentration dependent activation was observed of purified GAC mutants |

Source: US20160002619A1 (CORNELL UNIVERSITY, published 2016)
